Biological target: farletuzumab
Assay: cell-based or functional assay

Sequence of farletuzumab (heavy, as listed by the source, chain 1 of 2): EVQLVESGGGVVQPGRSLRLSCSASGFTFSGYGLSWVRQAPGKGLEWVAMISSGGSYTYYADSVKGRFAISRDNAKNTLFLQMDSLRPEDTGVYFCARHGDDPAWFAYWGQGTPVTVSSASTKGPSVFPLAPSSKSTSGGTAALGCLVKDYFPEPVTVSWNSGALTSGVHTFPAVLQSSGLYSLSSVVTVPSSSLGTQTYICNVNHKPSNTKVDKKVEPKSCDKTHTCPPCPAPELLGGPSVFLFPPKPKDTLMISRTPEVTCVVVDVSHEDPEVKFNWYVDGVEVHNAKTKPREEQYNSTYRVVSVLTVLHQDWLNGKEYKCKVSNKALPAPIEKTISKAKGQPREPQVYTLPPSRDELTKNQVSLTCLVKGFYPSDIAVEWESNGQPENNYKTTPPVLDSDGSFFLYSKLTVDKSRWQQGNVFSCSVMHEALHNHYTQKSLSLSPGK
Sequence of farletuzumab (light, as listed by the source, chain 2 of 2): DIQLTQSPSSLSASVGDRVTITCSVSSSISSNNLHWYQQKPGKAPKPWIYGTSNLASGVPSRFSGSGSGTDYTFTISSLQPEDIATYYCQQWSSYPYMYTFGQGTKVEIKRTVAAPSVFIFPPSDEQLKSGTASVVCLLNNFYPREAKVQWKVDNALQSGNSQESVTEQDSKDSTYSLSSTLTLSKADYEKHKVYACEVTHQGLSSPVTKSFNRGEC

## cancer antigen 125 (CA125) (from UniProt Q8WXI7 1-14451)
  inhibition of Farletuzumab ADCC activity (luminescence, Promega ADCC Reporter Bioassay Core Kit, CHO-hFR-α target cells): 50%

From patent US20160311921A1
